Patent US20040180823A1

Target: EphA4 receptor extracellular domain fused to a human Fc region (human)
Test: inhibition of ephrin-A5 AP binding to EphA4

Sequence of EphA4 receptor extracellular domain fused to a human Fc region (human) (Q03137 20-547): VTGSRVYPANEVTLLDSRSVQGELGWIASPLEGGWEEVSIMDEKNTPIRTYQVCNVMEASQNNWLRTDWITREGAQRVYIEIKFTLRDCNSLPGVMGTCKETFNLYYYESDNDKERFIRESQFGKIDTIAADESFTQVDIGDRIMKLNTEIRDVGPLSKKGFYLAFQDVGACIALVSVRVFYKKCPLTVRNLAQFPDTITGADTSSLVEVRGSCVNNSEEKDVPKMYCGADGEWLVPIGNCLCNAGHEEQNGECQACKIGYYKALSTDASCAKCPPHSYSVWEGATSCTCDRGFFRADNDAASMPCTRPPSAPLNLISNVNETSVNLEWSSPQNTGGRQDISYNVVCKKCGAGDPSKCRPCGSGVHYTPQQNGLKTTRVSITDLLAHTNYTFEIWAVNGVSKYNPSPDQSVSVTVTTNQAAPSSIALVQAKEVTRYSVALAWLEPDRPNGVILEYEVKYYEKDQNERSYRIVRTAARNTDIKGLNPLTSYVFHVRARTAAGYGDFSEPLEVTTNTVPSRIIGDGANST

| Substance | concentration required for similar levels of inhibition of ephrin-A5 AP binding [µM] | concentration that almost completely inhibited ephrin-A5 AP binding [µM] |
| --- | --- | --- |
| APY peptide (synthetic, biotinylated) | 10 |  |
| KYL peptide (synthetic, biotinylated) |  | 1 |
| VTM peptide (synthetic, biotinylated) | 100 |  |
